From paper doi:10.1101/2021.03.15.435440 (bioRxiv, 2021) come the findings set out here.

The target of this assay is SARS-CoV-2 spike (6P) (SARS-CoV-2, Wuhan-Hu-1 reference, UniProt P0DTC2, stabilised). Briefly: cryo-EM structure.

B1: Ab16 Fab (Fab, V domains shown)
VH: EVQLQQSGPELVKPGASVKISCKASGYSFNNYYMNWVKQSPEKSLEWIGEINPNSGYTSYNQKFRAKATLTVDKSSTTAYMQLKSLTSEDSAVYYCARYFGNLFAMDFWGQGTSVTVS
VL: DILMTQSPSSMSVSLGDTVSITCHASQGIGSNIGWLQQKPGKSFKGLIYLGTNLEDGVPSRFSGSGSGADYSLTISSLESEDFADYYCVQYVQFPYTFGGGTKLEIK
Consider B1, for which the binding result is on record as “binds”.
